Reference: US20240400640A1

Target: FcRn (human) (UniProt P55899)
Assay: Lumit FcRn binding immunoassay (competition); pH 6.0

IC50: 12.8 nM
Substance: hIgG1
